Read-outs that look alike come from different tables or passages of the source. One block for each molecule: values may come before it. No end group written: not given here.
How the values were obtained:
[1] = molecular target: activated protein C (APC) (human)
[2] = molecular target: human activated Factor X (Xa) (human)
[3] = molecular target: Factor Va (activated Factor V)
[4] = molecular target: Factor Va (activated Factor V); remark: listed apart in the source
[5] = molecular target: human activated Factor X (Xa) (human); remark: listed apart in the source
[6] = molecular target: Factor IXa (Homo sapiens (Human)); design: unit not given beside the values
[7] = molecular target: Factor IXa (Homo sapiens (Human))
[8] = molecular target: activated protein C (APC) (human); remark: listed apart in the source
[9] = molecular target: human activated Factor X (Xa) (human); remark: listed apart in the source
[10] = molecular target: Factor Va (activated Factor V); remark: listed apart in the source
[11] = molecular target: activated protein C (APC) (human); remark: listed apart in the source
[12] = molecular target: Factor Va (activated Factor V); remark: listed apart in the source
[13] = molecular target: Factor Va (activated Factor V); remark: listed apart in the source
[14] = molecular target: activated protein C (APC) (human); remark: listed apart in the source
[15] = molecular target: activated protein C (APC) (human); remark: listed apart in the source

Molecule: synthetic peptide PC65-79
Inhibition of APC (%), Xa-1 stage coagulation assay in NHP, 500 µM peptide [1]: 0%

Molecule: synthetic peptide PT473-487
IC50, Factor Xa-1 stage clotting assay [2]: 25 µM
IC50, prothrombinase assay in the presence of Factor Va (1 nM Xa, 0.4 nM Va, 1.2 uM prothrombin) [3]: 10 µM

Molecule: synthetic peptide PT463-478
IC50, Factor Xa-1 stage clotting assay [2]: > 500 µM

Molecule: synthetic peptide PT557-571
IC50, Factor Xa-1 stage clotting assay [2]: 50 µM
IC50, prothrombinase assay in the absence of Factor Va [5]: 80 µM
IC50, prothrombinase assay in the presence of Factor Va [5]: 40 µM

Molecule: KHVDGDQCLVLPLEH-NH2 (also: native Cys substituted by Ser or Gly, which position not given here) [synthetic peptide PC43-57]
Inhibition of APC (%), Xa-1 stage coagulation assay in NHP, 500 µM peptide [1]: 0%

Molecule: QVVNLPIVERPVSKD-NH2 (not fully specified) [synthetic peptide PT481-495]
IC50, Factor Xa-1 stage clotting assay [2]: > 500 µM

Molecule: HKGRSALVLQYLRVPL-NH2 [synthetic peptide IX315-330]
IC50, Factor IXa-1 stage clotting assay [6]: 30
IC50, tenase assay (Factor Xa generation) in the presence of Factor VIIIa [7]: 2 µM
IC50, tenase assay in the absence of VIIIa [7]: 40 to 60 µM

Molecule: VTAFLKWIDRSMKTR-NH2 [synthetic peptide X415-429]
IC50, Factor IXa-1 stage clotting assay [6]: 0
IC50, tenase assay in the presence of VIIIa [7]: 45 µM
IC50, Factor Xa-1 stage clotting assay [2]: 115 µM
IC50, prothrombinase assay with or without Factor Va [5]: 500 µM

Molecule: RSGWEGRFCQREVSF-NH2 (also: native Cys substituted by Ser or Gly, which position not given here) [synthetic peptide PC81-95]
Inhibition of APC (%), Xa-1 stage coagulation assay in NHP, 500 µM peptide [1]: 40%

Molecule: VKFTIRVFNPRNLKI-NH2 [control peptide with a randomized sequence of residues 311-325]
Factor Xa clotting activity in NHP (0.15 nM factor Xa) [9]: 30%

Molecule: LVLQYLRVPLVDRAT-NH2 [synthetic peptide IX321-335]
IC50, Factor IXa-1 stage clotting assay [6]: 30
IC50, tenase assay in the presence of Factor VIIIa [7]: 100 to 140 µM

Molecule: KLGDDLLQCHPAVKF-NH2 (also: native Cys substituted by Ser or Gly, which position not given here) [synthetic peptide PC125-139]
Inhibition of APC (%), Xa-1 stage coagulation assay in NHP, 500 µM peptide [1]: 30%

Molecule: KRNRTFVLNFIKIPV-NH2 [synthetic peptide PC311-325]
Factor Xa clotting activity in NHP (0.15 nM factor Xa) [9]: 7 µM
APC-catalyzed inactivation of Factor Va in the absence of phospholipids [4]: 87%
half-maximal inhibition of the APC-catalyzed inactivation of Factor Va, with phospholipid vesicles [4]: 6 µM
prothrombinase activity in the presence of Factor Va (1 nM Xa, 0.4 nM Va, 1.2 µM prothrombin) [13]: 8 µM
IC90** (concentration of peptide that inhibits 90% of APC anticoagulant activity), mean of APTT and Xa-1 stage coagulation assays in NHP [14]: 50 µM
50% inhibition of APC anticoagulant activity in APTT and Xa-1-stage assays in NHP and PSDP [15]: 7 to 20 µM
APC amidolytic activity towards S-2366, change in A405/5 minutes (none: 0.374) (A405/5 minutes) [11]: 0.342

Molecule: KVSRYVNWIKEKTKL-NH2 [synthetic peptide IX400-414]
IC50, Factor IXa-1 stage clotting assay [6]: 50
IC50, tenase assay in the presence of Factor VIIIa [7]: 100 to 140 µM

Molecule: VLNFIKIPVVPHNEC-NH2 [synthetic peptide PC317-331]
IC90** (concentration of peptide that inhibits 90% of APC anticoagulant activity), mean of APTT and Xa-1 stage coagulation assays in NHP [14]: 500 µM

Molecule: APGYKLGDDLLQCHP-NH2 (also: native Cys substituted by Ser or Gly, which position not given here) [synthetic peptide PC121-135]
Inhibition of APC (%), Xa-1 stage coagulation assay in NHP, 500 µM peptide [1]: 0%

More lines, now with the values ahead:

Inhibition of APC (%), Xa-1 stage coagulation assay in NHP, 500 µM peptide [1]: 0%
Molecule: synthetic peptide PC48-62

rate of Factor Va inactivation (% Vi/min), 5 nM APC and 40 nM Va, no phospholipids [4]: 4 % Vi/min
Molecule: activated protein C (APC) (enzyme)

Inhibition of APC (%), Xa-1 stage coagulation assay in NHP, 500 µM peptide [1]: 0%
Molecule: synthetic peptide PC110-124

IC50, Factor IXa-1 stage clotting assay [6]: 50
IC50, tenase assay in the presence of VIIIa [7]: 150 µM
IC50, Factor Xa-1 stage clotting assay [2]: 50 µM
IC50, prothrombinase assay in the presence of Factor Va (1 nM Xa, 0.4 nM Va, 1.2 uM prothrombin) [3]: 75 µM
Molecule: ARKGKYGIYTKVTAF-NH2 [synthetic peptide X404-418]

Inhibition of APC (%), Xa-1 stage coagulation assay in NHP, 500 µM peptide [1]: 66%
50% inhibition of APC anticoagulant activity, Xa-1-stage assay in NHP [8]: 250 µM
Molecule: HPAVKFPCGRPWKRM-NH2 (also: native Cys substituted by Ser or Gly, which position not given here) [synthetic peptide PC134-148]

Factor Xa clotting activity in NHP (0.15 nM factor Xa) [9]: 37%
prothrombinase activity in the presence of Factor Va [10]: 40%
APC amidolytic activity towards S-2366, change in A405/5 minutes (none: 0.374) (A405/5 minutes) [11]: 0.364
Molecule: MHKLREGKWRPKSR-NH2 [scrambled peptide with a randomized sequence of residues 142-155]

Inhibition of APC (%), Xa-1 stage coagulation assay in NHP, 500 µM peptide [1]: 0%
Molecule: DTLAFWSKHVDGDQC-NH2 (also: native Cys substituted by Ser or Gly, which position not given here) [synthetic peptide PC36-50]

APC-catalyzed inactivation of Factor Va in the absence of phospholipids [12]: 87%
half-maximal inhibition of the APC-catalyzed inactivation of Factor Va, with phospholipid vesicles [12]: 50 µM
Factor Xa clotting activity in NHP (0.15 nM factor Xa) [9]: 10 µM
prothrombinase activity in the presence of Factor Va [13]: 40 µM
Inhibition of APC (%), Xa-1 stage coagulation assay in NHP, 500 µM peptide [1]: 80%
APC amidolytic activity towards S-2366, change in A405/5 minutes (none: 0.374) (A405/5 minutes) [11]: 0.344
50% inhibition of APC anticoagulant activity, Xa-1-stage coagulation assay in NHP [8]: 25 µM
50% inhibition of APC anticoagulant activity, Xa-1-stage coagulation assay in protein S-depleted plasma [8]: 5 µM
Molecule: GRPWKRMEKKRSHLC-NH2 [synthetic peptide PC142-155 with an additional carboxy-terminal cysteine]

IC50, Factor IXa-1 stage clotting assay [6]: 25
IC50, tenase assay (Factor Xa generation) in the presence of Factor VIIIa [7]: 6 µM
IC50, tenase assay in the absence of VIIIa [7]: 40 to 60 µM
Molecule: YGIYTKVSRYVNWIK-NH2 [synthetic peptide IX395-409]

IC50, Factor Xa-1 stage clotting assay [2]: 500 µM
Molecule: EKGRQSTRLKMLEVPY-NH2 [synthetic peptide X329-344]

Source: US5679639
